assay: soluble on expression in E. coli; label from the status in PepcDB or PDB records

Sequence	soluble on expression in E. coli
MNDDKDVVIDQIYYISTDPSATTYPTTFSVSLVDNSVAGRPFFYVVGKSTMRVDRNTTLRVEEDSKLVEKYNETYGKKYLPFPEGTYSFSTNEVTINQGDNFSSDTIFISFSNWDKLSKIDKYLLPVSLKAVDDKGAVSMDRNLIYFIADFSTTNTGYNKPAAWKPLDRTDWDVSFSYAYGYDEAQFGGRLAVDGDVSTTWFTWGVVSAGECWWATTLPAPTHLTGFSLTRQTTFGSSYNVREAKVKVKKEGDTEWTEAGLFRFGSFKGNDPQYAVFIPAVENVKEFRIDIVSPADFTGFAELDLYQLEHHHHHH	not soluble
MIDYTAAGFTLLQGAHLYAPEDRGICDVLVANGKIIAVASNIPSDIVPNCTVVDLSGQILCPGFIDQHVHLIGGGGEAGPTTRTPEVALSRLTEAGVTSVVGLLGTDSISRHPESLLAKTRALNEEGISAWMLTGAYHVPSRTITGSVEKDVAIIDRVIGVKCAISDHRSAAPDVYHLANMAAESRVGGLLGGKPGVTVFHMGDSKKALQPIYDLLENCDVPISKLLPTHVNRNVPLFEQALEFARKGGTIDITSSIDEPVAPAEGIARAVQAGIPLARVTLSSDGNGSQPFFDDEGNLTHIGVAGFETLLETVQVLVKDYDFSISDALRPLTSSVAGFLNLTGKGEILPGNDADLLVMTPELRIEQVYARGKLMVKDGKACVKGTFETA	soluble
MTNWKPLVSVITPSYNARDYIEDTVHSVLDQSHPHWEMIIVDDCSTDGTRDILQQYEKIDERIHVVYLEENSGAAVARNKALERAQGRYVAFLDSDDKWKKDKLEKQLEFMMERSCAFSFTGYSLMAQDGTPLDKFIHAPESLTYDDALKNTIIGCLTVMIDREQTGQIQMPNIRTRQDLATWLSLLKKGFTAYGMNECLAEYRLVNNSISSNKWKAAKKTWFVYREIERLHFMKATWCFVQYAKNAVKKRL	soluble
SLLLKMDAFQDRLGTRGMLVRKGDHDETKVLPAVPVPQVRAANLPAAQAGDARIGTLPALFQALRASLPADEECNGLQAGDAQEPLTVTRLSTDKLLVSTDCWMGAYNVGTGVRVLNARAPFSCQPW	not soluble
MGSDKIHHHHHHMIYIGLPQWSHPKWARLGITSLEEYARHFNCVEGNTTLYALPKAEIVDRWYAQTTDDFRFCFKFPATISHQAALRHCDDLVQAFFTRLAPLETRIGQYWLQLPAAFGPRDLPALWQFLDALPATFTYGVEVRHPCFFDKGEDEQRLNRGLHARGVNRVILDSRPVHAAHPHSEAVRDAQRKKPKVPVHAVVTASHPMVRFIGSDNMAQNREFFAAWLQKLPQWRQTTTPFLFLHTPDIAQAPELVNTLWHDLRSVLPEIGTAPSIPQQSSLF	not soluble
MMKHVFQKGKDTSKPVLLLLHGTGGNELDLLPLAEIVDSEASVLSVRGNVLENGMPRFFRRLAEGIFDEEDLIFRTKELNEFLDEAAKEYKFDRNNIVAIGYSNGANIAASLLFHYENALKGAVLHHPMVPRRGMQLANLAGKSVFIAAGTNDPICSSAESEELKVLLENANANVTMHWENRGHQLTMGEVEKAKEWYDKAF	soluble
MGSDKIHHHHHHMYYQLYELHHAALQPARTYADAIRLFYSNPLNPVSSTTWGRSIAAAAEMFERTTRRYGKPGFGITSTVVDGKEVRVQEKEVWSRPFCRLLHFERQLPARRKPDVKLLMVAPMSGHYATLLRGTVEAMLPHADVYITDWIDARMVPLSYGNFDLDDYIDYLIEMFHLLGPDASVMAVCQPSVPVLAAVALMEARGDPNLPSSMTLMGGPIDTRRNPTAVNRLAQEHGIEWFRDNVVMSVPWPNPGFMRPVYPGFLQLSGFMSMNLDRHIVAHEEFFMHLVKGDGDSAEKHREFYDEYLAVMDLTAEFYLQTVDTVFIRHALPKGEMTHRSERVDPASIRSVALLTVEGENDDISGIGQTKAAHDLCVNIPSGKRHHHLQPSVGHYGVFNGSRFRKEILPRIVRFVNENRGA	not soluble
MGSDKIHHHHHHMLNLDFAKRVIIETAKQEWVDSPASGVRRKLLEREEAERGRATSIVEYKPGASFSTHEHPLGEEILVLEGVFSDENGDYPAGTYIRNPPGSSHAPFSKDGCKLLVKLHQFQPTDTQVVRINTHEAEWLPGQGGLEVMPLHSHGTEHVALVKWPANEVFKPHRHLGGEEILVLSGEFCDEHGRYPEGTWMRSPHTSVHHPFVDRETIIWVKTGHLG	not soluble
MAASIELFEQNGFSETSIQDIVDALGVTKGTFYYYFTSKEELLMDIHLRYIERLLDEEERIISDKRRSVQEKLYDIIFMLIHNVERQGREARIFFREMKHLNEEHLQKVKEKRDLFRYRLQSLIEEGMKSGELRCDLSPSIATLTVLGAANWSYQWFRPDGELTDAEVAKQMVEILLDGMSAPSVSKAE	not soluble
MGSDKIHHHHHHMLSMAGQVIAEDTAKAIEAAVHHEARLERDKARDGSRHPEAILNFFEVAPGQRVLDLFSGGGYYSELLARVVGEQGSVLVHNNQAYLPFAKEDLAERHYQERLPNAEVIISEADELQLPAASFDRIFFILGFHDTYYHEPGWPAIDRERLLQQMFTSLKPGGIVAIIDHDAAPESDTDTAHELHRLAKRHVVDAMEAAGFKLQGSLAVLENPEDKLTLSAFDEAVRGKTSRYVLMFVKPKL	not soluble
MNIAAESSAKPVWGPPNFCAAAARMQDVRVLMHPKTGRAFRSPVEPGSGWPGDPATPQTPVAADAAQVSALAGGAGSICELNALISVCRACPRLVSWREEVAVVKRRAFADQPYWGRPVPGWGSKRPRLLILGLAPAAHGANRTGRMFTGDRSGDQLYAALHRAGLVNSPVSVDAADGLRANRIRITAPVRCAPPGNSPTPAERLTCSPWLNAEWRLVSDHIRAIVALGGFAWQVALRLAGASGTPKPRFGHGVVTELGAGVRLLGCYHPSQQNMFTGRLTPTMLDDIFREAKKLAGIE	soluble
QDSDSTAAVAVLKRAVELDAESRYQQALVCYQEGIDMLLQVLKGTKESSKRCVLRTKISGYMDRAENIKKYLDQEKEDGK	soluble
MTDLEVSVDDLVKLLSPTMSLIVRRKTMEVVTQLGTPLDGSAGKYFQAQDFALGKAICQLCEATSSDRTETLAALTNFTSGSIEAADFVLDKSKCVEIAYTAVVTNALYSSVASRLLVNVSRHFPDRVDHKLKARNANYIGQLLNEIKKSVETGDEDRAKFVGFTVVNLSVLPPIRQNIVQGGENESSPPSTTMKLLPIVCELLTTAETTEIRECAADVLRNLAFDDSLHGSLLDTSDEYLCSILAPLMDVNDNLDEEEIAKLPVRLQYYEKERDSSDIVRQKLIEALFQLCATKHGREVLRAKGVYPAMRELDKGTETAEDKHKKTLLSSQQEHTLHALIGILIRYESEMDVDPELSSIRELGTSEVTEITKTS	not soluble
MELRVAGFLDNSMVNGEGLRSVLFLSGCRRRCPGCQNTDMQDFKYGESVSAEEIFNRIKSNVPIIKGVTFSGGDPLEQAEGLINISKEIKKLGLNIWCYTGYTYEEILKEKDSNKLELLKYIDVLVDGEFKAELTENAPKYAGSSNQRIIRLKLEHHHHHH	not soluble
HMSKVPRNFRLLEELEKGEKGFGPESCSYGLADSDDITMTKWNGTILGPPHSNHENRIYSLSIDCGPNYPDSPPKVTFISKINLPCVNPTTGEVQTDFHTLRDWKRAYTMETLLLDLRKEMATPANKKLRQPKEGETF	soluble
MSLQAELVIKNGLVILETGEVITDVAVQGGKIVAIGQDLSGERVIDATGLVVSPGMVDAHVHITDPGGGYRDEWEGYVTGTAACAKGGVTTFMEMPLNQIPATVDKTSLEIKYKAGENKLKVDVGSFGGVVPTNLADGIQELDEGGVSGYKCFLGTCGDRSIEGDFQNVDDYSLYEGMKQVAKTGKVLAIHAENAPITDKLGAVAYQNGETTLAAYVATRPVFTEVEAIQKAILFAKETGCRIHICHVACQEGVEEVLKAQAEGVDVTCETCTHYLYFTTDELDAIGPVVKCSPPIRDADQQAALWNHVQTGGIAFVTSDHSPCTPDLKDTTNAFEAWGGISGVQNNVDVLFDEAVQKRGLSLKQFADMIAANPADRYHLAQKGRISIGKDADFVLIKPNAPYILKAEDLEYRNKISPYIGREIGAQVIQTILRGETIYAQETGVTEAFNGVFIKNEGHHHHHH	soluble
MSLQIQGQIVDIENKRIYSGEITIQNGKIISIIEKNHEVKNYILPGFIDAHIHIESSMLVPSEFAKIAVLHGTVATISDPHEIANVLGKKGVYYMIENGKQVPLKFHFGAPSCVPATAFETAGAIIDSEEIKELMASPDIYYLSEMMNYPGVLFDDDEVLKKIAWAKHFNKPIDGHAPGLRGEPIKKYISAGITTDHECFTYSEAQEKLSLGMKVIIREGSAAKNFEALIDLLPANYENMMFCSDDKHPDDLILGHINLLCARAVAKGIDVFKILQVACVNPVHHYKMKVGLLKKNDAADFIVVEDLVNFKVNKTYINGELVAENGQSFVENINFETPNNFNITKKKISDFEIPSLAEKIRVIEALEGQLITNEIHHNSFIKNGKLVSDIENDILKMAVVNRYQNTTPAIAFIKNFGLKKGAIASSVAHDCHNIVVVGTSDEEICNAVNLIIKNTGGICAVNGTQNKSLALPVAGIMSDKDAWETGKLYQEIDAMAKDLGSTLKAPFMTLSFMALLVIPDLKLSDKGLFSGNTFSFVDLNVEEGHHHHHH	soluble
MAHHHHHHMYTHTHTHTHTHTCTHMYLSSTLHRVFSPLVASPPQKEVGSKSNARGGKRVWRKGLASWEPQAGTHAHAHAQTDAEGYLQRTRRKPRPPAHASSLSPPLLLGRSRMGYTRERTNRHFFVSRANAFFSRLPISRIQRALAMEAIKKGSMKPWKHTKEQIIGSPITCNFEYNPRPVRLIGTVMDAHTEETSIKGGLKVYARSEEANMMLWIPAGNPKLKYEVTAAKGSFEHYLDERSKWDEAWLTGRARMK	soluble
MSLKQNGGLTDLTGSVAFGTTPLSPGVTDRLYYPSRRNKGAALSDDKACFLSVPRSGGKGPPPEYDGAGRVTLFSGYLFDRERLARKLGGDHSWPDVRLAAAWIAHHGLDRLADLAGDYALSHWDPGARRLFLAVAPMGSRLLYWHRVGTICHFATTVAGLHRIPDIPRVVDPLHLTARFSAMVGDPTRTVYKDIHQIVPGDMLVADVNANRYVPLWRPDAERRLRLANEREYLEAADELLERAVARRLQAAHAPAFLSSGGLDSAAMLTTASRLAGDRKVRSYTIVPSPGLCVTADRGWYGDERAKVADLAASHTNLDIRLCHSLVPSPLETNPAHLFMATGLPCMIANQIGWLDIAFQQMQQAGHDAVLSGQSGNFTFSYDGNLCFADLIREGRPLTALRLLAQVARYKQQGFAPMVRHRVVVPLLPDAFYYGQRRWRGRPHPLADRTLTRPGWREKVGLDDYLADHGEQPFQERDSRSRQQIIHFMLKRRAMTLPNAHALETVRGTHYRDVYADRDLLEFILAIPRDQFILDGRNRSLARRLLAMRGVPDSIVNERAIGQEGHHHHHH	not soluble
AIAKPTNKAQDDDAVFALSTEVNHKLDLHQSSAEALRLAGVYTRQSCVLDLYHGYRSDDEDTEPDEEDGRLQTVREYHENGMLKLMRTFVRRLRRDATDPTAESSYYDRVVEEKHYDPSGICRVDMHFALGQPYLYRKHYYPNNRLKSEKVFFVEDEETMRARKVGHWRTYYENGNIQSEIIYNKDGVRCGFCKRYAIDGAIEWVKDYTREQEERLQAFNAKRGNLDLTVTDAARVLGLEGDWCSHVVNRTFRSKCAPLHPDWRRTAGDKAGETWEEEQRTEAFIRLSRAREVLLKFLETHPRECSCERGGA	soluble

Reference: the DeepSol protein solubility set
